# Measured values reported in US20230287109.
# Target: dimeric human Tie2 extracellular domain (ECD)-human IgG fusion protein (UniProt Q02763)
# Sequence (Q02763 23-748): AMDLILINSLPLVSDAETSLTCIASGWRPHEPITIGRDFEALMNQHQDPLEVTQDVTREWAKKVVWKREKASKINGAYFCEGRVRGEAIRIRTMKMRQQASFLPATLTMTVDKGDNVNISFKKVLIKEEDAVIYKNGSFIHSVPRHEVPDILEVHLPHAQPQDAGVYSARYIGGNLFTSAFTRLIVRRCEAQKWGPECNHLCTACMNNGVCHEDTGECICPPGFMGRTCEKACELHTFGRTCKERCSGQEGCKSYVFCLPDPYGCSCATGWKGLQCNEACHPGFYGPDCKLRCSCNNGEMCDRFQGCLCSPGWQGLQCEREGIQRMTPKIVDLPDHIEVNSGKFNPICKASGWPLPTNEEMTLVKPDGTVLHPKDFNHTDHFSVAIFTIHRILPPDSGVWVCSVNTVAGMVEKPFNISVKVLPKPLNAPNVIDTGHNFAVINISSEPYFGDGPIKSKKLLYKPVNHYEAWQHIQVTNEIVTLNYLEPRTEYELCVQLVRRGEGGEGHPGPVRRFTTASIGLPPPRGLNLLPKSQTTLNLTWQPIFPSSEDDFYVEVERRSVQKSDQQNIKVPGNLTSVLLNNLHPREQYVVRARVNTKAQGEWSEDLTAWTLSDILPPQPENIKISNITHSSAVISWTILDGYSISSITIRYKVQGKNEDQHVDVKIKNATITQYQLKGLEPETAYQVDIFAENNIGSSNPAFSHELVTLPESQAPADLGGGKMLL
substance,measurement,value
Recombinant human MMP-14,"cleavage of hTie2-ECD (reducing SDS-PAGE, 30° C., 16 hours)","co-incubation of MMP-14 and human Tie2 resulted in significant reduction of intact hTie2-ECD, with the appearance of shorter, cleaved fragments"
